Columns and labels:
Assay in all cases: intermolecular Diels-Alder kinetics
[1] = substrate: C=C/C=C/NC(=O)OCc1ccc(C(=O)OC)cc1; assay type: biochemical, Streptomyces rugosporus; settings: co-substrate 2, PBS pH 7.4, 37 °C
Text: (§1) intermolecular Diels-Alder kinetics on PyrI4

[2] = substrate: C=CC(=O)N(C)C; assay type: biochemical, Streptomyces rugosporus; settings: co-substrate 1a, PBS pH 7.4, 37 °C
Text: as §1

[3] = substrate: C=C/C=C/NC(=O)OCc1ccc(C(=O)OC)cc1; assay type: biochemical, Parafrankia colletiae; settings: co-substrate 2, PBS pH 7.4, 37 °C
Text: intermolecular Diels-Alder kinetics on AbnU

B1: PyrI4 (Streptomyces rugosporus) (protein)
chain: MTTPQIDERAMEAGAAALQETIVDPGPLDVTALAVAAALAAGLHSAADDPAAALDKCIVLDELTEFAEKLVVHDRPGGIGTTVEYVEVYEDASGVRLGTATGNAVVLKMEPHMWQFHQSVSELADGSFEAVGVIDCTAMLRRMTQVLRVTGRSGRYAGKSGFMTLAISDPNQRPPHYSVQVVLC
notes: full length, N-terminal poly-His tag, pET28a(+), codon-optimised synthetic gene, E. coli
Km [1]: 200 ± 10 µM
kcat [1]: 6.39e-06 ± 5.6e-07 s⁻¹
Km [2]: 100000 ± 1250 µM
kcat [2]: 6.39e-06 ± 5.6e-07 s⁻¹

B2: AbnU (Parafrankia colletiae) (protein)
chain: MSVVHEGIWEPQIRNEQNVNVADPQVGQIGSYYDELYDSSRELLGITIGRYEIRYKKVGGAVLTYYSEDLFLRDGIIHAEGWADFNDVKNGVWVGYPAVGLDGVYRGLDGRREWRVIEPDQPVEARISLHG
notes: N-terminal poly-His tag, pET28a(+), codon-optimised synthetic gene, E. coli; dimer
Km [3]: 200 ± 10 µM
kcat [3]: 1.17e-05 ± 2.8e-07 s⁻¹

Reference: PMC9814550, “Exo-selective intermolecular Diels–Alder reaction by PyrI4 and AbnU on non-natural substrates” (Communications Chemistry, 2021)
